This passage reports Kd results from publication PMC6683157.

Data set [1] deals with T1, Csm2 (wild type);Psy3 (wild type) (Saccharomyces cerevisiae;Saccharomyces cerevisiae) (UniProt P40465+Q12318).
T1 sequence 1: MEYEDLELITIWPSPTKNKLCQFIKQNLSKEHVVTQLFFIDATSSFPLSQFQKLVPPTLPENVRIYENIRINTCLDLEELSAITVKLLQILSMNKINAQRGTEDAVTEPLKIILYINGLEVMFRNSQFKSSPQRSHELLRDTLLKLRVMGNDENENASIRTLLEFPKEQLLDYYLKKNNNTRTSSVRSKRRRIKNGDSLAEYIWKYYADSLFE
T1 sequence 2: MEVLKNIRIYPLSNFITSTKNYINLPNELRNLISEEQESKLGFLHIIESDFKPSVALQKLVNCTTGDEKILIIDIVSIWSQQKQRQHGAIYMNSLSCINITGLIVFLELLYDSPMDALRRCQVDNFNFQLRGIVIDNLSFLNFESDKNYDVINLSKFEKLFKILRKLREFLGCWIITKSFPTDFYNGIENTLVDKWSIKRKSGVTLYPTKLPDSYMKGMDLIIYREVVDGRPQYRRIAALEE
Briefly: fluorescence anisotropy. The note with it: heparin preparation, Anisotropy: 20 mM Tris pH 8.0, 20-25 nM DNA (2.5-5 nM in Fig 4d), EMSA: 25 mM Tris-HCl pH 8.0, 50 mM NaCl.

Data set [2] concerns the target T2, Csm2 (wild type);Psy3 (wild type);Shu1;Shu2 (Saccharomyces cerevisiae;Saccharomyces cerevisiae;Saccharomyces cerevisiae;Saccharomyces cerevisiae) (UniProt P40465+Q12318+P38751+P38957).
T2 sequence 1: T1 sequence 1
T2 sequence 2: T1 sequence 2
T2 sequence 3: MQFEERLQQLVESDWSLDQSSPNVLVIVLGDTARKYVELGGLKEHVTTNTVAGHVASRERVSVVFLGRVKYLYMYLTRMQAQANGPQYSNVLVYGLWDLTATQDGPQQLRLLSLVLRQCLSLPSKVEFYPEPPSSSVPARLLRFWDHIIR
T2 sequence 4: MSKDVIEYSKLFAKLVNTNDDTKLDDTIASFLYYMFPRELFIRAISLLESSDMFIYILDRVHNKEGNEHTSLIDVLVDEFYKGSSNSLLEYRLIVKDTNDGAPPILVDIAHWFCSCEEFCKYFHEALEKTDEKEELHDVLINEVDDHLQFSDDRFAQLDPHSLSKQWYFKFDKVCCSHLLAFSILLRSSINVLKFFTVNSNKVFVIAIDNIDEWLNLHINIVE
The experiment in a line: fluorescence anisotropy. The note with it: 5 nM DNA, quadratic fit; N21 of strand 1 = THF abasic analog (ssDNA at ss/ds junction); Anisotropy: 20 mM Tris pH 8.0, 20-25 nM DNA (2.5-5 nM in Fig 4d), protein titrated from 1 M NaCl stock; EMSA: 25 mM Tris-HCl pH 8.0, 50 mM NaCl, 1 mM DTT ….

[3] abbreviates: N20 of strand 1 = THF abasic analog, protein titrated from 1 M NaCl …, 1 mM DTT, 100 u.
Where [4] appears, read: N31 of strand 1 = THF abasic analog, protein titrated from 1 M NaCl …, 1 mM DTT, 100 u.

For “CAGTGCCGAAGCTTGTCAANTTTTTTTTTTTTTTTTTTTT / TTTTTTTTTTTTTTTTTTTTCTTGACAAGCTTGCGCACTG [AP7 double-flap]”, the Kd in data set [1] (setting [3]) is 0.112 µM. In turn, “TTTTTTTTTTTTTTTTTTTTNTTGACAAGCTTGCGCACTG / CAGTGCGCAAGCTTGTCAAGTTTTTTTTTTTTTTTTTTTT [AP3 double-flap]” gave a Kd in data set [1] (N21 of strand 1 = THF abasic analog, protein titrated from 1 M NaCl …, 1 mM DTT, 100 u) of 0.104 µM.

As for “CAGTGCCGAAGCTTGTCAAGNTTTTTTTTTTTTTTTTTTT / TTTTTTTTTTTTTTTTTTTTCTTGACAAGCTTGCGCACTG [AP6 double-flap]”, the Kd came out at 0.072 µM in data set [2] and 0.072 µM in data set [1] (text gives 71, N21 of strand 1 = THF abasic analog (ssDNA at ss/ds junction), protein titrated from 1 M NaCl stock, 1 mM DTT …).

Turning to “CAGTGCCGAAGCTTGTCAAGTTTTTTTTTTNTTTTTTTTT / TTTTTTTTTTTTTTTTTTTTCTTGACAAGCTTGCGCACTG [AP5 double-flap]”, the Kd in data set [1] (setting [4]) worked out at 0.142 µM. Turning to “CAGTGCCGANGCTTGTCAAGTTTTTTTTTTTTTTTTTTTT / TTTTTTTTTTTTTTTTTTTTCTTGACAAGCTTGCGCACTG [AP8 double-flap]”, the Kd in data set [1] (N10 of strand 1 = THF abasic analog (in dsDNA), protein titrated from 1 M NaCl stock, 1 mM DTT …) came out at 0.153 µM. In data set [1] (setting [4]), “TTTTTTTTTTTTTTTTTTTTCTTGACAAGCNTGCGCACTG / CAGTGCGCAAGCTTGTCAAGTTTTTTTTTTTTTTTTTTTT [AP4 double-flap]” showed a Kd of 0.131 µM. In the case of “TTTTTTTTTTTTTTTTTTTNCTTGACAAGCTTGCGCACTG / CAGTGCGCAAGCTTGTCAAGTTTTTTTTTTTTTTTTTTTT [AP2 double-flap]”, in data set [1] (setting [3]), the Kd was found to be 0.127 µM.

With “TTTTTTTTTNTTTTTTTTTTCTTGACAAGCTTGCGCACTG / CAGTGCGCAAGCTTGTCAAGTTTTTTTTTTTTTTTTTTTT [AP1 double-flap]”, in data set [1] (N10 of strand 1 = THF abasic analog (dSpacer), protein titrated from 1 M NaCl stock, 1 mM DTT …), the Kd came to 0.105 µM.
